Assay [1] deals with T1, MAGEA4 peptide on HLA-A*01:01 (human).
T1 peptide: KEVDPASNTY
In words: cytokine release. As to the method: (§1) FIG. 7. […] IFNγ release to the supernatant was measured by ELISA after 18 hours of coculture.

Assay [2] deals with T2, MAGEA4 peptide on HLA-A*01:01 (human).
T2 peptide: TQDWVQENY
Briefly: cytokine release. As to the method:
as §1

Assay [3] has as its target T3, MAGEA4 peptide on HLA-A*01:01 (human).
T3 peptide: TTEEQEAAV
Briefly: cytokine release. As to the method:
as §1

The target in assay [4] is T4, MAGEA4 peptide on HLA-A*01:01 (human).
T4 peptide: EVDPASNTYT
In words: cytokine release. The procedure: as §1

Assay [5] addresses T5, MAGEA4 peptide on HLA-A*01:01 (human).
T5 peptide: LVTCLGLSY
Briefly: cytokine release. As to the method:
as §1

Assay [6] has as its target T6, MAGEA3 peptide on HLA-A*01:01 (human).
T6 peptide: EVDPIGHLY
In words: cytokine release. The procedure: as §1

The target of assay [7] is T7, MAGEA4 peptide on HLA-A*01:01 (human).
T7 peptide: WVQENYLEY
Briefly: cytokine release. The procedure: as §1

The target of assay [8] is T8, titin peptide on HLA-A*01:01 (human).
T8 peptide: ESDPIVAQY
In words: cytokine release. The procedure:
as §1

The target of assay [9] is T9, MAGEA4 peptide on HLA-A*01:01 (human).
T9 peptide: ELAHFLLRKY
Briefly: cytokine release. The procedure:
as §1

Assay [10] addresses T10, MAGEA4 peptide on HLA-A*01:01 (human).
T10 peptide: DWVQENYLEY
In words: cytokine release. As to the method:
as §1

The target in assay [11] is T11, MAGEA4 peptide on HLA-A*01:01 (human).
T11 peptide: LTQDWVQENY
In words: cytokine release. As to the method:
as §1

For assay [12], the target named is T12, MAGEA4 peptide on HLA-A*01:01 (human).
T12 peptide: WVQENYLEYR
In words: cytokine release. The procedure:
as §1

The target in assay [13] is T13, MAGEA4 peptide on HLA-A*01:01 (human).
T13 peptide: TLVTCLGLSY
In words: cytokine release. The procedure: as §1

Assay [14] has as its target T14, MAGEA4 peptide on HLA-A*01:01 (human).
T14 peptide: EVDPASNTY
In words: IFN-gamma ELISA after 18 h; 1x10^5 TCR-transduced T cells with 5x10^4 peptide-loaded K562-A*01:01; two donors pooled, non-linear regression; full-length, on cells. The procedure:
FIG. 6. […] The results of two donors were pooled and normalized as percentage of max. The depicted EC50 value was calculated by non-linear regression.
To calculate the EC50 value, non-linear regression was used to create a dose-response curve (FIG. 6). […] The K562 cells express HLA-A*01:01.
On the technique in general: An ELISA detects its analyte on a solid surface through an enzyme-linked reagent.

This passage reports binding result and EC50 of peptide results from patent US20240287156A1 (published 2024).

B1: CTC-TCR127 (TCR)
alpha TRAV35*01 CDR3: AGQLWGGSNYKLT
beta TRBV5-1*01 CDR3: ASSLAGTGAHFITNEKLF
B1: the binding result was “recognises” in assay [1]; “no recognition” in [2]; “no recognition” in assay [3]; “recognises” in assay [4]; “no recognition” in assay [5]; “no recognition” in assay [6]. The binding result in assay [7], in assay [8], in [9], in assay [10], in [11] and in assay [12] was “no recognition” in each case. Besides, the binding result in [13] is recorded as “no recognition”. This molecule also came in with an EC50 of peptide in assay [14] of 7.6 nM.
